Results published in patent US20150344570A1 (published 2015).

T1: FcγRIIb extracellular domain with C-terminal His tag (human, UniProt P31994 43-217)
T1 construct: extracellular domain; soluble analyte in Biacore; also called FcgRIIb; not shown: His tag at the C terminus
T1 sequence (looked up): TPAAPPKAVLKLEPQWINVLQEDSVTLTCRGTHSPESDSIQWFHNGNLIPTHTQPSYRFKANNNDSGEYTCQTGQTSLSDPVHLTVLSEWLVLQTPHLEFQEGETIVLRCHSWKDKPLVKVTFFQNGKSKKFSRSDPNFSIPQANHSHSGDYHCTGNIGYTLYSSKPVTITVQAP

T2: FcγRIIb extracellular domain with C-terminal His tag (human, UniProt P31994 43-217)
T2 construct: extracellular domain; expressed in FreeStyle293 cells; analyte in Biacore; also called FcgRIIb; 2b
T2 sequence (looked up): T1 sequence (looked up)

B1: GpH7-A5/GpH7-B3 variant V266_10E/GpL16-k0 (antibody, human IgG1, kappa)
heavy 1: not shown
heavy 2: not shown
light: DIVMTQSPLSLPVTPGEPASISCQASESLVHSNRNTYLHWYLQKPGQSPQLLIYKVSNRFSGVPDRFSGSGSGTDFTLKISRVEAEDVGVYYCSQNTHVPPTFGQGTKVEIERTVAAPSVFIFPPSDEQLKSGTASVVCLLNNFYPREAKVQWKVDNALQSGNSQESVTEQDSKDSTYSLSSTLTLSKADYEKHKVYACEVTHQGLSSPVTKSFNRGEC
notes: He Ab; IgG1, mutation in one H chain
B2: GpH7-A5/GpH7-B3 variant S239_20W/GpL16-k0 (antibody, human IgG1, kappa)
heavy 1: not shown
heavy 2: not shown
light: B1 light
notes: as for B1
B3: GpH7-A5/GpH7-B3 variant V266_09D/GpL16-k0 (antibody, human IgG1, kappa)
heavy 1: not shown
heavy 2: not shown
light: B1 light
notes: as for B1
B4: GpH7-A5/GpH7-B3 variant D265_10E/GpL16-k0 (antibody, human IgG1, kappa)
heavy 1: not shown
heavy 2: not shown
light: B1 light
notes: as for B1
B5: GpH7-A5/GpH7-B3 variant D265_07I/GpL16-k0 (antibody, human IgG1, kappa)
heavy 1: not shown
heavy 2: not shown
light: B1 light
notes: as for B1
B6: GpH7-A5/GpH7-B3 variant D265_04F/GpL16-k0 (antibody, human IgG1, kappa)
heavy 1: not shown
heavy 2: not shown
light: B1 light
notes: as for B1
B7: GpH7-A5/GpH7-B3 variant D265_03V/GpL16-k0 (antibody, human IgG1, kappa)
heavy 1: not shown
heavy 2: not shown
light: B1 light
notes: as for B1
B8: GpH7-A5/GpH7-B3 variant V266_05P/GpL16-k0 (antibody, human IgG1, kappa)
heavy 1: not shown
heavy 2: not shown
light: B1 light
notes: as for B1
B9: GpH7-A5/GpH7-B3 variant D265_11K/GpL16-k0 (antibody, human IgG1, kappa)
heavy 1: not shown
heavy 2: not shown
light: B1 light
notes: as for B1
B10: GpH7-A5/GpH7-B3 variant D270_01G/GpL16-k0 (antibody, human IgG1, kappa)
heavy 1: not shown
heavy 2: not shown
light: B1 light
notes: change in the GpH7-B3 H chain only; also called He Ab
B11: GpH7-A5/GpH7-B3 variant D270_07I/GpL16-k0 (antibody, human IgG1, kappa)
heavy 1: not shown
heavy 2: not shown
light: B1 light
notes: as for B10
B12: GpH7-A5/GpH7-B3 variant D270_02A/GpL16-k0 (antibody, human IgG1, kappa)
heavy 1: not shown
heavy 2: not shown
light: B1 light
notes: as for B10
B13: GpH7-A5/GpH7-B3 variant D270_08L/GpL16-k0 (antibody, human IgG1, kappa)
heavy 1: not shown
heavy 2: not shown
light: B1 light
notes: as for B10
B14: GpH7-A5/GpH7-B3 variant D270_04F/GpL16-k0 (antibody, human IgG1, kappa)
heavy 1: not shown
heavy 2: not shown
light: B1 light
notes: as for B10
B15: GpH7-A5/GpH7-B3 variant D270_06M/GpL16-k0 (antibody, human IgG1, kappa)
heavy 1: not shown
heavy 2: not shown
light: B1 light
notes: as for B10
B16: GpH7-A5/GpH7-B3 variant D270_05P/GpL16-k0 (antibody, human IgG1, kappa)
heavy 1: not shown
heavy 2: not shown
light: B1 light
notes: as for B10
B17: GpH7-A5/GpH7-B3 variant D270_03V/GpL16-k0 (antibody, human IgG1, kappa)
heavy 1: not shown
heavy 2: not shown
light: B1 light
notes: as for B10

target: T3, FcγRIa extracellular domain with C-terminal His tag (human, UniProt P12314 16-292); assay: SPR (Biacore); He/Con_1a divided by He/Con_2b (FcγRIIb as reference)
T3 construct: extracellular domain; expressed in FreeStyle293 cells; analyte in Biacore; also called FcgRI; 1a
T3 sequence (P12314 16-292): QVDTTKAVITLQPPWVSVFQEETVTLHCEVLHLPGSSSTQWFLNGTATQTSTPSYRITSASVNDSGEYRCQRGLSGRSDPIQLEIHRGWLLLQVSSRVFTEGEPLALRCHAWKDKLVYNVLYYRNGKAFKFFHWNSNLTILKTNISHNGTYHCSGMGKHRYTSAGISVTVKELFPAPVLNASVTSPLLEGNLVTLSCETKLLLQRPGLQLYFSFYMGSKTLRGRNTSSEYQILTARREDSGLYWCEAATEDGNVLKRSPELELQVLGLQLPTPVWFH

Row | He_1a/2b (Ia/IIb) | Binder
1 | 5.37 ratio | B1
2 | 2.06 ratio | B2
3 | 7.88 ratio | B3
4 | 2.66 ratio | B4
5 | 41.2 ratio | B5
6 | 16.8 ratio | B6
7 | 17.3 ratio | B7
8 | 205 ratio | B8
9 | 2.9 ratio | B9

target: T1, FcγRIIb extracellular domain with …; assay: SPR, binding relative to GpH7-A5/GpH7-B3/GpL16-k0 = 100

Row | He/Con_2b | Binder
10 | 30.5 % of control | B10
11 | 41.5 % of control | B11
12 | 48.3 % of control | B12
13 | 53.6 % of control | B13
14 | 53.1 % of control | B14
15 | 48.2 % of control | B15
16 | 13.9 % of control | B16
17 | 39.5 % of control | B17

target: T4, FcγRIa extracellular domain with C-terminal His tag (human, UniProt P12314 16-292); assay: as above
T4 construct: extracellular domain; soluble analyte in Biacore; also called FcgRI; not shown: His tag at the C terminus
T4 sequence (P12314 16-292): as above

Row | He/Con_1a | Binder
18 | 76.3 % of control | B10
19 | 74.6 % of control | B11
20 | 71.5 % of control | B12
21 | 73.5 % of control | B13
22 | 78.1 % of control | B14
23 | 78.8 % of control | B15
24 | 67.1 % of control | B16
25 | 77.9 % of control | B17

target: T4, FcγRIa extracellular domain with …; assay: SPR; He/Con_1a divided by He/Con_2b (FcγRIa against FcγRIIb)
Description: The heterodimerized antibodies He Abs in which one of the H chains was introduced with an alteration were assayed for their binding activities to each activating FcγR and inhibitory FcγR according to the method described in Example 4. […] The activating FcγRs in FIGS. 26, 27, 28, and 29 are FcγRIa, FcγRIIa (R), FcγRIIa (H), and FcγRIIIa, respectively.
Analysis of interaction between objective antibody and the FcγR was carried out using Biacore T100 (GE Healthcare). HBS-EP+ (GE Healthcare) was used as the running buffer, and the measurement temperature was set to 25° C. Chips produced by immobilizing the antigen peptide by the amine coupling method to a Series S Sencor Chip CM5 (GE Healthcare), or alternatively, chips produced by allowing preliminarily biotinylated antigen peptides to interact with and immobilize onto a Series S Sensor Chip SA (certified) (GE Healthcare) were used. Antibodies of interest were captured onto an antigen peptide-immobilized chip, and allowed to interact to each FcγR diluted with running buffer. To regenerate and repeatedly use the chip, the antibodies captured on the chip were washed off by reacting 10 mM glycine-HCl, pH 1.5.

Row | He_1a/2b (Ia/IIb) | Binder
26 | 2.5 ratio | B10
27 | 1.8 ratio | B11
28 | 1.48 ratio | B12
29 | 1.37 ratio | B13
30 | 1.47 ratio | B14
31 | 1.64 ratio | B15
32 | 4.81 ratio | B16
33 | 1.97 ratio | B17

target: T2, FcγRIIb extracellular domain with …; assay: SPR (Biacore), captured antibody, FcγR as analyte; relative binding

Row | He/Con_2b | Binder
34 | 15.2 % of HeCon Ab (GpH7-A5/GpH7-B3/GpL16-k0 = 100) | B1
35 | 45.1 % of HeCon Ab (GpH7-A5/GpH7-B3/GpL16-k0 = 100) | B2
36 | 10.1 % of HeCon Ab (GpH7-A5/GpH7-B3/GpL16-k0 = 100) | B3
37 | 38.2 % of HeCon Ab (GpH7-A5/GpH7-B3/GpL16-k0 = 100) | B4
38 | 1.3 % of HeCon Ab (GpH7-A5/GpH7-B3/GpL16-k0 = 100) | B5
39 | 3.2 % of HeCon Ab (GpH7-A5/GpH7-B3/GpL16-k0 = 100) | B6
40 | 3.2 % of HeCon Ab (GpH7-A5/GpH7-B3/GpL16-k0 = 100) | B7
41 | 0.4 % of HeCon Ab (GpH7-A5/GpH7-B3/GpL16-k0 = 100) | B8
42 | 14.9 % of HeCon Ab (GpH7-A5/GpH7-B3/GpL16-k0 = 100) | B9

target: T3, FcγRIa extracellular domain with …; assay: as above

Row | He/Con_1a | Binder
43 | 81.9 % of HeCon Ab (GpH7-A5/GpH7-B3/GpL16-k0 = 100) | B1
44 | 92.7 % of HeCon Ab (GpH7-A5/GpH7-B3/GpL16-k0 = 100) | B2
45 | 79.3 % of HeCon Ab (GpH7-A5/GpH7-B3/GpL16-k0 = 100) | B3
46 | 101 % of HeCon Ab (GpH7-A5/GpH7-B3/GpL16-k0 = 100) | B4
47 | 54.4 % of HeCon Ab (GpH7-A5/GpH7-B3/GpL16-k0 = 100) | B5
48 | 53 % of HeCon Ab (GpH7-A5/GpH7-B3/GpL16-k0 = 100) | B6
49 | 55.7 % of HeCon Ab (GpH7-A5/GpH7-B3/GpL16-k0 = 100) | B7
50 | 71.9 % of HeCon Ab (GpH7-A5/GpH7-B3/GpL16-k0 = 100) | B8
51 | 43.2 % of HeCon Ab (GpH7-A5/GpH7-B3/GpL16-k0 = 100) | B9
